{"source": "patent US20220193232A1", "key": {"Fc-receptors": {"target": "Fc-receptors", "experiment": "cell-based or functional assay"}, "[1]": {"target": "kappa myeloma antigen (KMA) (human)", "experiment": "cell-based or functional assay"}}}
{"substance": "KM.CAR-hCH2CH3-28z (receptor)", "values": [{"measurement": "enrichment of CAR expressing T-cells in culture with PBMC alone (% of CD3+ T-cells)", "setting": "Fc-receptors", "result": 28}]}
{"substance": "KM.CAR_8a_28TM_41BBz (from UniProt P01732 138-182; P10747 153-179; Q07011 214-255) (receptor)", "values": [{"measurement": "CAR expression (GFP) in culture in the presence of JJN3", "setting": "[1]", "result": 5, "unit": "%"}, {"measurement": "expansion of CAR T-cell culture in the presence of JJN3", "setting": "[1]", "result": 8, "unit": "fold"}]}
{"substance": "KM.CAR_h_28TM_41BBz (from UniProt P10747 153-179; Q07011 214-255) (receptor)", "values": [{"measurement": "CAR expression (GFP) in culture with JJN3", "setting": "[1]", "result": 17, "unit": "%"}, {"measurement": "expansion of CAR T-cell culture with JJN3", "setting": "[1]", "result": 5, "unit": "fold"}]}
